# Data reported in patent publication US9993529B2, “Stable formulations of a hyaluronan-degrading enzyme” (Halozyme, Inc., priority 2011, dated 2018).
# Experiment: RP-HPLC insulin percent purity
# Format: physicochemical
# Description: Apparent solubility was measured as the percent insulin recovery as compared to the initial formulations/conditions.
# To determine the apparent solubility, the peak area of insulin/insulin analog main peak and desamido peak were integrated and combined together to calculate the percentage relative to the standards. […] The data were processed using Design-Expert® 7.0 (StatEase) and the “historical data” feature. Insulin percent purity was expressed as the percent of main insulin versus all insulin species.
substance,measurement,setting,value
"Regular Insulin: mature human insulin, SEQ ID NOS: 103 and 104",Percent of insulin main peak,"50 mM NaCl, pH 7.0, 0 months at 2-8° C.",97.64%
same,Percent of insulin main peak,"50 mM NaCl, pH 7.0, 0.25 months at 2-8° C.",97.59%
same,Percent of insulin main peak,"50 mM NaCl, pH 7.0, 0.5 months at 2-8° C.",97.50%
same,Percent of insulin main peak,"50 mM NaCl, pH 7.0, 1 month at 2-8° C.",97.44%
same,Percent of insulin main peak,"50 mM NaCl, pH 7.0, 3 months at 2-8° C.",97.24%
same,Percent of insulin main peak,"50 mM NaCl, pH 7.0, 5 months at 2-8° C.",97.73%
same,Percent of insulin main peak,"50 mM NaCl, pH 7.0, 9 months at 2-8° C.",97.20%
same,Percent of insulin main peak,"50 mM NaCl, pH 7.2, 0 months at 2-8° C.",97.64%
same,Percent of insulin main peak,"50 mM NaCl, pH 7.2, 0.25 months at 2-8° C.",97.59%
same,Percent of insulin main peak,"50 mM NaCl, pH 7.2, 0.5 months at 2-8° C.",97.56%
same,Percent of insulin main peak,"50 mM NaCl, pH 7.2, 1 month at 2-8° C.",97.46%
same,Percent of insulin main peak,"50 mM NaCl, pH 7.2, 3 months at 2-8° C.",97.47%
same,Percent of insulin main peak,"50 mM NaCl, pH 7.2, 5 months at 2-8° C.",97.75%
same,Percent of insulin main peak,"50 mM NaCl, pH 7.2, 9 months at 2-8° C.",97.27%
same,Percent of insulin main peak,"50 mM NaCl, pH 7.4, 0 months at 2-8° C.",97.58%
same,Percent of insulin main peak,"50 mM NaCl, pH 7.4, 0.25 months at 2-8° C.",97.54%
same,Percent of insulin main peak,"50 mM NaCl, pH 7.4, 0.5 months at 2-8° C.",97.48%
same,Percent of insulin main peak,"50 mM NaCl, pH 7.4, 1 month at 2-8° C.",97.47%
same,Percent of insulin main peak,"50 mM NaCl, pH 7.4, 3 months at 2-8° C.",97.45%
same,Percent of insulin main peak,"50 mM NaCl, pH 7.4, 5 months at 2-8° C.",97.74%
same,Percent of insulin main peak,"50 mM NaCl, pH 7.4, 9 months at 2-8° C.",97.27%
same,Percent of insulin main peak,"50 mM NaCl, pH 7.6, 0 months at 2-8° C.",97.65%
same,Percent of insulin main peak,"50 mM NaCl, pH 7.6, 0.25 months at 2-8° C.",97.58%
same,Percent of insulin main peak,"50 mM NaCl, pH 7.6, 0.5 months at 2-8° C.",97.33%
same,Percent of insulin main peak,"50 mM NaCl, pH 7.6, 1 month at 2-8° C.",97.44%
same,Percent of insulin main peak,"50 mM NaCl, pH 7.6, 3 months at 2-8° C.",97.35%
same,Percent of insulin main peak,"50 mM NaCl, pH 7.6, 5 months at 2-8° C.",97.66%
same,Percent of insulin main peak,"50 mM NaCl, pH 7.6, 9 months at 2-8° C.",97.34%
same,Percent of insulin main peak,"80 mM NaCl, pH 7.0, 0 months at 2-8° C.",97.65%
same,Percent of insulin main peak,"80 mM NaCl, pH 7.0, 0.25 months at 2-8° C.",97.50%
same,Percent of insulin main peak,"80 mM NaCl, pH 7.0, 0.5 months at 2-8° C.",97.30%
same,Percent of insulin main peak,"80 mM NaCl, pH 7.0, 1 month at 2-8° C.",97.20%
same,Percent of insulin main peak,"80 mM NaCl, pH 7.0, 5 months at 2-8° C.",97.81%
same,Percent of insulin main peak,"80 mM NaCl, pH 7.0, 9 months at 2-8° C.",96.18%
same,Percent of insulin main peak,"80 mM NaCl, pH 7.2, 0 months at 2-8° C.",97.57%
same,Percent of insulin main peak,"80 mM NaCl, pH 7.2, 0.25 months at 2-8° C.",97.59%
same,Percent of insulin main peak,"80 mM NaCl, pH 7.2, 0.5 months at 2-8° C.",97.30%
same,Percent of insulin main peak,"80 mM NaCl, pH 7.2, 1 month at 2-8° C.",97.45%
same,Percent of insulin main peak,"80 mM NaCl, pH 7.2, 3 months at 2-8° C.",97.34%
same,Percent of insulin main peak,"80 mM NaCl, pH 7.2, 5 months at 2-8° C.",97.64%
same,Percent of insulin main peak,"80 mM NaCl, pH 7.4, 0 months at 2-8° C.",97.56%
same,Percent of insulin main peak,"80 mM NaCl, pH 7.4, 0.25 months at 2-8° C.",97.61%
same,Percent of insulin main peak,"80 mM NaCl, pH 7.4, 0.5 months at 2-8° C.",97.51%
same,Percent of insulin main peak,"80 mM NaCl, pH 7.4, 1 month at 2-8° C.",97.43%
same,Percent of insulin main peak,"80 mM NaCl, pH 7.4, 3 months at 2-8° C.",97.43%
same,Percent of insulin main peak,"80 mM NaCl, pH 7.4, 5 months at 2-8° C.",97.75%
same,Percent of insulin main peak,"80 mM NaCl, pH 7.4, 9 months at 2-8° C.",97.29%
same,Percent of insulin main peak,"80 mM NaCl, pH 7.6, 0 months at 2-8° C.",97.63%
same,Percent of insulin main peak,"80 mM NaCl, pH 7.6, 0.25 months at 2-8° C.",97.62%
same,Percent of insulin main peak,"80 mM NaCl, pH 7.6, 0.5 months at 2-8° C.",97.52%
same,Percent of insulin main peak,"80 mM NaCl, pH 7.6, 1 month at 2-8° C.",97.37%
same,Percent of insulin main peak,"80 mM NaCl, pH 7.6, 3 months at 2-8° C.",97.64%
same,Percent of insulin main peak,"80 mM NaCl, pH 7.6, 5 months at 2-8° C.",97.67%
same,Percent of insulin main peak,"80 mM NaCl, pH 7.6, 9 months at 2-8° C.",97.31%
same,Percent of insulin main peak,"110 mM NaCl, pH 7.0, 0 months at 2-8° C.",97.64%
same,Percent of insulin main peak,"110 mM NaCl, pH 7.0, 0.25 months at 2-8° C.",97.31%
same,Percent of insulin main peak,"110 mM NaCl, pH 7.0, 0.5 months at 2-8° C.",97.57%
same,Percent of insulin main peak,"110 mM NaCl, pH 7.0, 1 month at 2-8° C.",96.64%
same,Percent of insulin main peak,"110 mM NaCl, pH 7.0, 3 months at 2-8° C.",96.10%
same,Percent of insulin main peak,"110 mM NaCl, pH 7.0, 5 months at 2-8° C.",97.79%
same,Percent of insulin main peak,"110 mM NaCl, pH 7.2, 0 months at 2-8° C.",97.62%
same,Percent of insulin main peak,"110 mM NaCl, pH 7.2, 0.25 months at 2-8° C.",97.46%
same,Percent of insulin main peak,"110 mM NaCl, pH 7.2, 0.5 months at 2-8° C.",97.35%
same,Percent of insulin main peak,"110 mM NaCl, pH 7.2, 3 months at 2-8° C.",97.49%
same,Percent of insulin main peak,"110 mM NaCl, pH 7.2, 5 months at 2-8° C.",97.61%
same,Percent of insulin main peak,"110 mM NaCl, pH 7.2, 9 months at 2-8° C.",95.91%
same,Percent of insulin main peak,"110 mM NaCl, pH 7.4, 0 months at 2-8° C.",97.65%
same,Percent of insulin main peak,"110 mM NaCl, pH 7.4, 0.25 months at 2-8° C.",97.58%
same,Percent of insulin main peak,"110 mM NaCl, pH 7.4, 0.5 months at 2-8° C.",97.39%
same,Percent of insulin main peak,"110 mM NaCl, pH 7.4, 1 month at 2-8° C.",97.36%
same,Percent of insulin main peak,"110 mM NaCl, pH 7.4, 3 months at 2-8° C.",97.36%
same,Percent of insulin main peak,"110 mM NaCl, pH 7.4, 5 months at 2-8° C.",97.79%
same,Percent of insulin main peak,"110 mM NaCl, pH 7.4, 9 months at 2-8° C.",96.91%
same,Percent of insulin main peak,"110 mM NaCl, pH 7.6, 0 months at 2-8° C.",97.58%
same,Percent of insulin main peak,"110 mM NaCl, pH 7.6, 0.25 months at 2-8° C.",97.57%
same,Percent of insulin main peak,"110 mM NaCl, pH 7.6, 0.5 months at 2-8° C.",97.60%
same,Percent of insulin main peak,"110 mM NaCl, pH 7.6, 1 month at 2-8° C.",97.52%
same,Percent of insulin main peak,"110 mM NaCl, pH 7.6, 3 months at 2-8° C.",97.42%
same,Percent of insulin main peak,"110 mM NaCl, pH 7.6, 5 months at 2-8° C.",97.61%
same,Percent of insulin main peak,"110 mM NaCl, pH 7.6, 9 months at 2-8° C.",97.31%
same,Percent of insulin main peak,"140 mM NaCl, pH 7.0, 0 months at 2-8° C.",97.65%
same,Percent of insulin main peak,"140 mM NaCl, pH 7.0, 0.25 months at 2-8° C.",97.15%
same,Percent of insulin main peak,"140 mM NaCl, pH 7.0, 1 month at 2-8° C.",96.39%
same,Percent of insulin main peak,"140 mM NaCl, pH 7.0, 3 months at 2-8° C.",96.16%
same,Percent of insulin main peak,"140 mM NaCl, pH 7.0, 9 months at 2-8° C.",95.17%
same,Percent of insulin main peak,"140 mM NaCl, pH 7.2, 0 months at 2-8° C.",97.56%
same,Percent of insulin main peak,"140 mM NaCl, pH 7.2, 0.25 months at 2-8° C.",97.37%
same,Percent of insulin main peak,"140 mM NaCl, pH 7.2, 1 month at 2-8° C.",96.62%
same,Percent of insulin main peak,"140 mM NaCl, pH 7.2, 3 months at 2-8° C.",96.60%
same,Percent of insulin main peak,"140 mM NaCl, pH 7.2, 9 months at 2-8° C.",95.49%
same,Percent of insulin main peak,"140 mM NaCl, pH 7.4, 0 months at 2-8° C.",97.64%
same,Percent of insulin main peak,"140 mM NaCl, pH 7.4, 0.25 months at 2-8° C.",97.57%
same,Percent of insulin main peak,"140 mM NaCl, pH 7.4, 0.5 months at 2-8° C.",97.33%
same,Percent of insulin main peak,"140 mM NaCl, pH 7.4, 1 month at 2-8° C.",97.23%
same,Percent of insulin main peak,"140 mM NaCl, pH 7.4, 3 months at 2-8° C.",97.38%
same,Percent of insulin main peak,"140 mM NaCl, pH 7.4, 5 months at 2-8° C.",97.73%
same,Percent of insulin main peak,"140 mM NaCl, pH 7.4, 9 months at 2-8° C.",96.10%
same,Percent of insulin main peak,"140 mM NaCl, pH 7.6, 0 months at 2-8° C.",97.64%
same,Percent of insulin main peak,"140 mM NaCl, pH 7.6, 0.25 months at 2-8° C.",97.61%
same,Percent of insulin main peak,"140 mM NaCl, pH 7.6, 0.5 months at 2-8° C.",97.41%
same,Percent of insulin main peak,"140 mM NaCl, pH 7.6, 1 month at 2-8° C.",97.51%
same,Percent of insulin main peak,"140 mM NaCl, pH 7.6, 3 months at 2-8° C.",97.35%
same,Percent of insulin main peak,"140 mM NaCl, pH 7.6, 5 months at 2-8° C.",97.56%
same,Percent of insulin main peak,"140 mM NaCl, pH 7.6, 9 months at 2-8° C.",97.07%
same,insulin main peak percentage,"regular insulin/rHuPH20, long term storage at 2-8° C.",about 97%
